The results in this text go back to patent publication US20090192084A1 (CALIFORNIA INSTITUTE OF TECHNOLOGY, published 2009).

For this assay, the target named is T1, endogenous p97 (human, UniProt P55072 2-806).
T1 construct: also called VCP
The assay can be described thus: Flag co-IP, 293 cells, MudPIT MS. On the procedure:
For immunoprecipitation experiments, the cells were lysed in buffer A (50 mM HEPES/KOH, pH 7.5; 5 mM Mg(OAc)₂; 70 mM KOAc; 0.2% Triton X-100; 10% glycerol; 0.2 mM EDTA; protease inhibitors) and incubated with anti-Flag agarose beads (Sigma) or anti-Myc sepharose beads (Covance).
Mass spectrometrical sample analysis was performed as described previously (Graumann et al., 2004) using a high-pressure liquid chromatography pump (Agilent) in line to a LCQ DecaXP electrospray ion trap mass spectrometer (ThermoFinnigan). In brief, 2-4 mg of protein extract were incubated with anti-Flag or anti-Myc beads and the immunoprecipitated proteins were eluted with saturated urea. The eluates were then proteolitically digested using sequentially endoproteinase Lys-C and trypsin. The resulting peptide mixtures were pressure-loaded onto triphasic microcapillary columns and sample separation was achieved using a chromatography program consisting of six salt steps, each followed by an organic gradient. The eluting peptides were electrosprayed into the mass spectrometer and the column eluate was continuously analyzed. One full-range mass scan ([…]) was followed by three data-dependent tandem mass spectrometry (MS/MS) spectra. Sequence database matching was performed against the IPI human database (Kersey et al., 2004) version 3.15.1 using Sequest (Eng et al., 1994) and the results were filtered with DTASelect (Tabb et al., 2002), using the parameters indicated in Graumann et al. (2004).

T1 sequence (P55072 2-806 limits assumed): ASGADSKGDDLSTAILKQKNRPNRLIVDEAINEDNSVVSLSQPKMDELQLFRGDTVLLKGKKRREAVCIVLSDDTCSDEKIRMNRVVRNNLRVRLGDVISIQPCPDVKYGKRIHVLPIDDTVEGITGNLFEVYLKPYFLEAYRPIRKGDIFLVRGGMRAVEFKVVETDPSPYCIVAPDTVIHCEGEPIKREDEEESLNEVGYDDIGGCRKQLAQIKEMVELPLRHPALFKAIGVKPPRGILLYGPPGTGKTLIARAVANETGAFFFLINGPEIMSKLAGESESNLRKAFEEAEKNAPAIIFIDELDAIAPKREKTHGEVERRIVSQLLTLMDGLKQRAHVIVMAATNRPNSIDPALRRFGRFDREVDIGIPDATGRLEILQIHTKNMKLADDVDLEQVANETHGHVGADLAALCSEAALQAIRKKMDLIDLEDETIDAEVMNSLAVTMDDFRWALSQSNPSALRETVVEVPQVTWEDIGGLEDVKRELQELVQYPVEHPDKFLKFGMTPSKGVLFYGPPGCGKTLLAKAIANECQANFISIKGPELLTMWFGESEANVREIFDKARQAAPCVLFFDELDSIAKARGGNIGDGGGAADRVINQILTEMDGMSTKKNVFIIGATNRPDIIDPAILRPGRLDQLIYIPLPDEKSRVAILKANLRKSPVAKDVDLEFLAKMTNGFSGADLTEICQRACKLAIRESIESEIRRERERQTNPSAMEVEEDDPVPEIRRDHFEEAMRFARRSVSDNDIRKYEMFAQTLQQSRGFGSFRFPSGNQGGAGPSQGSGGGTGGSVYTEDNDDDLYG

B1: Flag-UBXD3 (other, UniProt Q96LJ8 1-280, looked up)
chain: MATEAPVNIAPPECSTVVSTAVDSLIWQPNSLNMHMIRPKSAKGRTRPSLQKSQGVEVCAHHIPSPPPAIPYELPSSQKPGACAPKSPNQGASDEIPELQQQVPTGASSSLNKYPVLPSINRKNLEEEAVETVAKKASSLQLSSIRALYQDETGTMKTSEEDSRARACAVERKFIVRTKKQGSSRAGNLEEPSDQEPRLLLAVRSPTGQRFVRHFRPTDDLQTIVAVAEQKNKTSYRHCSIETMEVPRRRFSDLTKSLQECRIPHKSVLGISLEDGEGWP
notes: also called RDB 2149; not shown: N-terminal Flag tag
B1 returned a sequence count of 57, a sequence coverage of 64.5% and a spectrum count of 254.

B2: Flag-UBXD2 (other, UniProt Q92575 1-508, looked up)
chain: MLWFQGAIPAAIATAKRSGAVFVVFVAGDDEQSTQMAASWEDDKVTEASSNSFVAIKIDTKSEACLQFSQIYPVVCVPSSFFIGDSGIPLEVIAGSVSADELVTRIHKVRQMHLLKSETSVANGSQSESSVSTPSASFEPNNTCENSQSRNAELCEIPPTSDTKSDTATGGESAGHATSSQEPSGCSDQRPAEDLNIRVERLTKKLEERREEKRKEEEQREIKKEIERRKTGKEMLDYKRKQEEELTKRMLEERNREKAEDRAARERIKQQIALDRAERAARFAKTKEEVEAAKAAALLAKQAEMEVKRESYARERSTVARIQFRLPDGSSFTNQFPSDAPLEEARQFAAQTVGNTYGNFSLATMFPRREFTKEDYKKKLLDLELAPSASVVLLPAGRPTASIVHSSSGDIWTLLGTVLYPFLAIWRLISNFLFSNPPPTQTSVRVTSSEPPNPASSSKSEKREPVRKRVLEKRGDDFKKEGKIYRLRTQDDGEDENNTWNGNSTQQM
notes: also called RDB 2153; not shown: N-terminal Flag tag
B2 showed a sequence count of 27, a sequence coverage of 41.1% and a spectrum count of 958.

B3: Flag-UBXD1 (other, UniProt Q9BZV1 1-441, looked up)
chain: MKKFFQEFKADIKFKSAGPGQKLKESVGEKAHKEKPNQPAPRPPRQGPTNEAQMAAAAALARLEQKQSRAWGPTSQDTIRNQVRKELQAEATVSGSPEAPGTNVVSEPREEGSAHLAVPGVYFTCPLTGATLRKDQRDACIKEAILLHFSTDPVAASIMKIYTFNKDQDRVKLGVDTIAKYLDNIHLHPEEEKYRKIKLQNKVFQERINCLEGTHEFFEAIGFQKVLLPAQDQEDPEEFYVLSETTLAQPQSLERHKEQLLAAEPVRAKLDRQRRVFQPSPLASQFELPGDFFNLTAEEIKREQRLRSEAVERLSVLRTKAMREKEEQRGLRKYNYTLLRVRLPDGCLLQGTFYARERLGAVYGFVREALQSDWLPFELLASGGQKLSEDENLALNECGLVPSALLTFSWDMAVLEDIKAAGAEPDSILKPELLSAIEKLL
notes: also called RDB 2152; not shown: N-terminal Flag tag
The molecule B3 yielded a sequence count of 159, a sequence coverage of 84.3% and a spectrum count of 1130.

B4: Flag-UBXD6 (other, UniProt O00124 1-270, looked up)
chain: MASRGVVGIFFLSAVPLVCLELRRGIPDIGIKDFLLLCGRILLLLALLTLIISVTTSWLNSFKSPQVYLKEEEEKNEKRQKLVRKKQQEAQGEKASRYIENVLKPHQEMKLRKLEERFYQMTGEAWKLSSGHKLGGDEGTSQTSFETSNREAAKSQNLPKPLTEFPSPAEQPTCKEIPDLPEEPSQTAEEVVTVALRCPSGNVLRRRFLKSYSSQVLFDWMTRIGYHISLYSLSTSFPRRPLAVEGGQSLEDIGITVDTVLILEEKEQTN
notes: also called Rep-8/UBXD6; RDB 2145; not shown: N-terminal Flag tag
With B4, the sequence count amounted to 55, the sequence coverage was determined as 59.5% and the spectrum count was 212.
